Measurements from patent US20160362487A1 (Regeneron, published 2016).
Changes are numbered by the printed parent chain. In names and notes the source's numbering stands.

T1: human IL-33 (R&D Systems, #3625-IL-010/CF) (human, UniProt O95760 112-270)
T1 sequence (looked up): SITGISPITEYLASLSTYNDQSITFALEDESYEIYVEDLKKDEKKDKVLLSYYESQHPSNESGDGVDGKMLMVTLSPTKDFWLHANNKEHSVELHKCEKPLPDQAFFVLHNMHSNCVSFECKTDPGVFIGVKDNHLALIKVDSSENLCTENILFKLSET

T2: cynomolgus monkey IL-33 expressed with a C-terminal hexahistidine tag (cynomolgus monkey)
T2 construct: also called MfIL-33-6His; Mf-IL-33-6His
T2 chain: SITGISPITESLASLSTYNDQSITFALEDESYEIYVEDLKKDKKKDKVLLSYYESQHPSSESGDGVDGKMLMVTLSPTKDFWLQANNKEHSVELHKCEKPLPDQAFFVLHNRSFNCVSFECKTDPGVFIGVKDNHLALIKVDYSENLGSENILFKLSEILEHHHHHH

B1: H4H9640P (antibody, human IgG4, V domains shown)
VH: QVQLQESGPGLVKPSETLSLTCTVSGGSISSYYWSWIRQPPGKGLELIGYIYYSGSTNYNPSLKSRVTISVDTSKNHFSLKLSSVTAADTAVYYCARSQYTSSWYGSFDIWGQGTMVTVSS
VL: DIQMTQSPSSVSASVGDRVTITCRASQGISTWLAWFQQKPGKAPKLLIYAASTLQGGVPSRFSGSGSGPEFTLTISSLQPEDFATYYCQQANSFPWTFGQGTKVEIK
notes: Human IgG4 Fc (H4H)
B2: H4H9629P (antibody, human IgG4, V domains shown)
VH: EVQLVESGGGLVQPGGSLRLSCAASGFTFRSFAMSWVRQAPGKGLELVSDLRTSGGSTYYADSVKGRLTISRDNSKNTLYLQMNSLRAEDTAVYYCAKSHYSTSWFGGFDYWGQGTLVTVSS
VL: DIQMTQSPSSVSASVGDRVTITCRASQGFSSWLAWYQQKPGKAPKLLIYAASSLQSGVPSRFSGSGSGTDFTLTITNLQPEDFATYYCQQANSFPLTFGGGTKVEIK
notes: Human IgG4 Fc (H4H)
B3: H4H9660P (antibody, human IgG4, V domains shown)
VH: EVQLVESGGGLVQPGGSLRLSCAASGITLSSYGMSWVRQAPGKGLEWVASIFGSGGGPYYADSVKGRFTMSRDNSKNTLYLQMNSLRAEDTAVYYCAKDRYSGSYYGGFDYWGRGTLVTVSS
VL: B2 VL with F29I, S30T, K45T, S56T, T76S, N77S, D82H, L96P
notes: Human IgG4 Fc (H4H)
B4: H4H9676P (antibody, human IgG4, V domains shown)
VH: EVQLVESGGGLVQPGGSLRLSCSASGFTFSSYAMNWVRQAPGKGLEWVTAISGSGGGTYYADSVKGRFTISRDNSKNSLFLQLNSLRAEDTAVYYCAKQTYTSSWYGGFDIWGQGTMVTVSS
VL: B2 VL with K39I, S53R, S63R, T76S, N77S
notes: Human IgG4 Fc (H4H)
B5: H1M9559N (antibody, mouse IgG1, V domains shown)
VH: QVQLVESGGGVVQPGRSLRLSCAASGFTFSSYGMHWVRQAPGKGLEWVAVIWYDGRNKYYTDSVKGRFTISRDNSKNTLYLQMDSLRAEDTAVYYCARERYISSYYGGFDPWGQGALVTVSS
VL: B2 VL with F29I, L46V, T76S, N77S, L96F, G100P, V104L, E105D
notes: Human variable domains, mouse IgG1 Fc (H1M)
B6: H4H9666P (antibody, human IgG4, V domains shown)
VH: QVQLVQSGAEVKKPGASVKVSCKASGYTFTSYGISWVRQAPGQGLEWMGWIRAYNGYTNYAQKFQGRVTMTTDTSTNTAYMELRTLNSDDTAVYYCARDRYSGSFHGNFDYWGQGTLVTVSS
VL: B2 VL with F29I, S30F, L46V, S53N, Q55E, T76S, N77S, F94L
notes: Human IgG4 Fc (H4H)
B7: H4H9672P (antibody, human IgG4, V domains shown)
VH: EVQLVESGGGLVQPGGSLRLSCAASGFTLRSYVMYWVRQGPGKGLEGVSGISGSSGGTYYTDSVKGRFTISRDNSKNTLFLQMNSLRAEDTAVYFCARSVYSTTWYGGFQHWGQGTLVTVSS
VL: B2 VL with A13V, G28V, F29I, Q38L, T76S, N77G, T85V, A91T
notes: Human IgG4 Fc (H4H)
B8: H4H9633P (antibody, human IgG4, V domains shown)
VH: EVQLVESGGGLVQPGGSLRLSCAASGFTFSSYVMSWVRQAPGKGLEWVSSISGNGGSTNYADSVKGRFTISRDNSKNTLFLEMNSLRAEDTAVYYCAKSLGTTTTFLGFDYWGQGTLVTVSS
VL: B2 VL with F29I, D70Y, T76S, N77S
notes: Human IgG4 Fc (H4H)
B9: H4H9670P (antibody, V domains shown)
VH: EVQLVESGGGLVQPGGSLRLSCAASGFTLSSYAMSWVRQAPGKGLEWVSAISGSGGSTYYADSVKGRFTISRDNSKNSLYLQLNSLRAEDTAVYYCAKTLYTTSWYGGFQHWGQGTLVTVSS
VL: DIQMTQSPSSVSASIGDRVTITCRASQGISSWLAWYQQKPGKVPKLLIYAASSLQSGFPSRFSGSGSGTDFTLTISSLQPEDFATYYCQQTHSFPWTVGQGTKVEIK
notes: Human IgG4 Fc (H4H)
B10: H1M9568N (antibody, mouse IgG1, V domains shown)
VH: QVLLVQSGAEVKKPGATVKVSCKASGSTFTGYYMHWVRQAPGQGLEWMGWINPNNGGTNYAQKFQGRVTMTRDTSISTAYMELSRLRSDDTAVYYCARELRYNWKSWGQGTLVTVSS
VL: EIVLTQSPGTLSLSPGERVTLSCRASQSVGRPYLAWYQQIPGQAPRLLIYGASSRATDIPDRFSGNGSGTDFTLTISRLEPEDFAVYYCQQYDNSPYTFGQGTRLEIK
notes: as for B5
B11: H1M9565N (antibody, mouse IgG1, V domains shown)
VH: QVTLKESGPVLVKPTESLTLTCSVSGFSLSNVRMGVSWIRQSPGKALEWLAHIFSNDEKSYTTSLKTRLTISKDTSRSQVVLTMTDMDPGDTATYYCARIRNLAFNYWGQGTLVTVSS
VL: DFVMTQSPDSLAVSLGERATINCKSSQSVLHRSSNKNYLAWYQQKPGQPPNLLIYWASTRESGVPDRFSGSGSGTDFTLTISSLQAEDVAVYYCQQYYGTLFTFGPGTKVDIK
notes: as for B5

Target: T1, human IL-33 (R&D Systems, …)
Experiment: cell-based or functional assay

Row | IC50, blocking of IFN-γ release from human PBMC induced by 260 pM hIL-33, donor #603486 [M] | IC50, blocking of IFN-γ release from human PBMC induced by 260 pM hIL-33, donor #603487 [M] | Binder
1 | 4.42e-09 | 1.22e-08 | B1
2 | 8.15e-10 | 5.21e-09 | B2
3 | 6.67e-10 | 2.91e-09 | B3

Target: T1, human IL-33 (R&D Systems, …)
Experiment: SPR 37C pH7.4, mAb captured
Description: (§1) Equilibrium dissociation constants (KD values) for IL-33 binding to purified anti-IL-33 monoclonal antibodies were determined using a real-time surface plasmon resonance biosensor using a Biacore 4000 instrument. The Biacore sensor surface was first derivatized by amine coupling with either a polyclonal rabbit anti-mouse antibody (GE, # BR-1008-38) or with a monoclonal mouse anti-human Fc antibody (GE, # BR-1008-39) to capture anti-IL-33 monoclonal antibodies expressed with mouse or with human IgG4 constant regions, respectively. All Biacore binding studies were performed in 0.01M ADA pH 7.4, 0.15M NaCl, 3 mM EDTA, and 0.05% v/v Surfactant Tween-20 (ABS-ET running buffer). […] Association of either hIL-33 or MfIL-33-6His to the captured monoclonal antibody was monitored for 4 minutes and their dissociation in ABS-ET running buffer was monitored for 10 minutes. The effect of reduced pH on the binding of each anti-IL-33 antibody to either hIL-33 or MfIL-33-6His was studied using an in-line pH chase assay format in 0.01M ADA pH 6.0, 0.15M NaCl, 3 mM EDTA, and 0.05% v/v Surfactant Tween-20 (ABS-ET pH6 buffer). To achieve this, association of either hIL-33 or MfIL-33-6His to the captured monoclonal antibody was monitored for 4 minutes in ABS-ET running buffer. Following a 30 second dissociation of either hIL-33 or MfIL-33-6His in ABS-ET running buffer, ABS-ET pH6 buffer was injected for 3 minutes, and the analyte dissociation under the low-pH conditions was measured. All the binding kinetic experiments were performed at both 25° C. and 37° C. Kinetic association (kₐ) and dissociation (kd) constants were determined by fitting the real-time sensorgrams to a 1:1 binding model using Scrubber 2.0c curve fitting software. Binding dissociation equilibrium constants (KD) and dissociative half-lives (t½) were calculated from the kinetic rate constants as: […]

Row | Kd [nM] | koff [s⁻¹] | kon [M⁻¹ s⁻¹] | t½ [min] | Binder
4 | 0.498 | 0.000573 | 1.15e+06 | 20 | B1
5 | 0.508 | 0.000646 | 1.27e+06 | 18 | B2
6 | 0.922 | 0.00128 | 1.38e+06 | 9 | B4
7 | 2.03 | 0.000962 | 473000 | 12 | B5
8 | 0.596 | 0.000479 | 803000 | 24 | B3
9 | 0.681 | 0.00077 | 1.13e+06 | 15 | B6
10 | 1.05 | 0.00115 | 1.09e+06 | 10 | B7
11 | 0.931 | 0.000689 | 740000 | 17 | B8
12 | 0.676 | 0.000783 | 1.16e+06 | 15 | B9
13 | 1.43 | 0.000961 | 672000 | 12 | B10

Target: T2, cynomolgus monkey IL-33 expressed with …
Experiment: SPR 37C pH7.4, mAb captured
Description: as §1

Row | Kd [nM] | koff [s⁻¹] | kon [M⁻¹ s⁻¹] | t½ [min] | Binder
14 | 2.59 | 0.000202 | 78200 | 57 | B11
15 | 5.38 | 0.00436 | 810000 | 2.6 | B1
16 | 32.4 | 0.0347 | 1.07e+06 | 0.3 | B2
17 | 7.7 | 0.0144 | 1.87e+06 | 0.8 | B4
18 | 7.04 | 0.00347 | 493000 | 3.3 | B5
19 | 6.53 | 0.00444 | 680000 | 2.6 | B3
20 | 32.7 | 0.0141 | 432000 | 0.8 | B6
21 | 13.7 | 0.013 | 946000 | 0.9 | B7
22 | 48.6 | 0.0227 | 468000 | 0.5 | B8
23 | 6.84 | 0.00503 | 735000 | 2.3 | B9
24 | 4.46 | 0.00173 | 389000 | 7 | B10

Target: T2, cynomolgus monkey IL-33 expressed with …
Experiment: BLI; captured MfIL-33-6His, mAb-1 step with Buffer
Description: Binding competition between a panel of different anti-IL-33 monoclonal antibodies was determined using a real time, label-free bio-layer interferometry assay on an Octet® HTX biosensor (ForteBio, A Division of Pall Life Sciences). The experiment was performed at 25° C. using a buffer of 0.01M HEPES pH7.4, 0.15M NaCl, 3 mM EDTA, 0.05% v/v Surfactant Tween-20, and 0.1 mg/ml BSA (HBS-ET kinetics buffer) with the plate shaking at a speed of 1000 rpm. […] The antigen-captured biosensors were then saturated with a first anti-IL-33 monoclonal antibody (subsequently referred to as mAb-1) by immersion into wells containing 50 μg/mL solution of mAb-1 for 5 minutes. The biosensors were then dipped into wells containing a 50 μg/mL solution of a second anti-IL-33 monoclonal antibody (subsequently referred to as mAb-2) for 4 minutes. The biosensors were washed in HBS-ET kinetics buffer in between every step of the experiment. The real-time binding response was monitored during the experiment, and the maximum binding response for each binding step was recorded. The response of mAb-2 binding to MfIL-33-6His pre-complexed with mAb-1 was measured, and competitive/non-competitive behavior of different anti-IL-33 monoclonal antibodies with respect to each other was determined.

Row | mAb-2 Binding to the Pre-complex of mAb-1 & MfIL-33-6xHis [nm] | Binder
25 | 0.34 | B11
26 | 0.33 | B1
27 | 0.3 | B2
28 | 0.29 | B4
29 | 0.25 | B5
30 | 0.3 | B3
31 | 0.32 | B6
32 | 0.3 | B7
33 | 0.32 | B8
34 | 0.3 | B9
35 | 0.37 | B10
